What was measured:
purified protein [1] = substrate: N[C@@H](CCC(=O)O)C(=O)O; test: purified protein; assay type: biochemical, Escherichia coli; conditions: 0.1 M Pyridine/HCl, pH 4.6, 0.1 mM DTT, 40 µM PLP, discontinuous assay
purified protein [2] = substrate: N[C@@H](CC[PH](=O)O)C(=O)O; test: purified protein; assay type: biochemical, Escherichia coli; conditions: 0.1 M Pyridine/HCl, pH 4.6, 0.1 mM DTT, 40 µM PLP, discontinuous assay

B1: EcGadB (Escherichia coli K-12) (protein)
chain: MDKKQVTDLRSELLDSRFGAKSISTIAESKRFPLHEMRDDVAFQIINDELYLDGNARQNLATFCQTWDDENVHKLMDLSINKNWIDKEEYPQSAAIDLRCVNMVADLWHAPAPKNGQAVGTNTIGSSEACMLGGMAMKWRWRKRMEAAGKPTDKPNLVCGPVQICWHKFARYWDVELREIPMRPGQLFMDPKRMIEACDENTIGVVPTFGVTYTGNYEFPQPLHDALDKFQADTGIDIDMHIDAASGGFLAPFVAPDIVWDFRLPRVKSISASGHKFGLAPLGCGWVIWRDEEALPQELVFNVDYLGGQIGTFAINFSRPAGQVIAQYYEFLRLGREGYTKVQNASYQVAAYLADEIAKLGPYEFICTGRPDEGIPAVCFKLKDGEDPGYTLYDLSERLRLRGWQVPAFTLGGEATDIVVMRIMCRRGFEMDFAELLLEDYKASLKYLSDHPKLQGIAQQNSFKHT
notes: expressed and purified EcGadB (DEAE chromatography); no tag stated; PLP-dependent homohexamer; EC 4.1.1.15
For B1, the Km (purified protein [1]) was 0.84 ± 0.09 mM, the kcat (purified protein [1]) was 78.2 ± 2.06 s⁻¹ and the kcat/Km (purified protein [1]) was 92800 ± 10300 M⁻¹ s⁻¹. It also gave a Km (purified protein [2]) of 39.82 ± 5.66 mM, a kcat (purified protein [2]) of 13.9 ± 0.58 s⁻¹ and a kcat/Km (purified protein [2]) of 350 ± 50 M⁻¹ s⁻¹.
